This is an account of results in IntAct's records for PubMed 14673118.

B1: Thioredoxin (Synechocystis sp. (strain PCC 6803 / Kazusa)), P52231 (parent)
chain: MSATPQVSDASFKEDVLDSELPVLVDFWAPWCGPCRMVAPVVDEISQQYEGKVKVVKLNTDENPNTASQYGIRSIPTLMIFKGGQRVDMVVGAVPKTTLASTLEKYL
partner: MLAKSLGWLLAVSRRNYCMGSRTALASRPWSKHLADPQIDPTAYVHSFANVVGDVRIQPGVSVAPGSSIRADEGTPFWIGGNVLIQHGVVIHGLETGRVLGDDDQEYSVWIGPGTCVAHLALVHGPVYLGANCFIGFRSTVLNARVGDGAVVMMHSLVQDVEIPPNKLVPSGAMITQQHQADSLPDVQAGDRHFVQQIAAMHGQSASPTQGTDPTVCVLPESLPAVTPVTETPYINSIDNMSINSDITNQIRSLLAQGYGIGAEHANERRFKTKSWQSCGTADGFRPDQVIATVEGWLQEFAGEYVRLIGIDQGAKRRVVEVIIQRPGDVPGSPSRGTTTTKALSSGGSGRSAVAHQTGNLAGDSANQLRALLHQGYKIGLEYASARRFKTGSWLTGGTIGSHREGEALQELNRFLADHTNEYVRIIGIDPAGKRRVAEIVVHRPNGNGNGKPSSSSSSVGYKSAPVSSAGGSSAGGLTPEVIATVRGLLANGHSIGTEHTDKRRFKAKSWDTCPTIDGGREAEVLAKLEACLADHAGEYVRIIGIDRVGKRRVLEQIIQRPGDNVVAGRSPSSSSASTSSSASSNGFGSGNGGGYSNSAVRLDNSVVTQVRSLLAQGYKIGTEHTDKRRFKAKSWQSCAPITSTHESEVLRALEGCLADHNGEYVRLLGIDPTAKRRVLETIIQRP
B2: Thioredoxin (Synechocystis sp. (strain PCC 6803 / Kazusa)), P52231 (parent)
chain: B1 chain
partner: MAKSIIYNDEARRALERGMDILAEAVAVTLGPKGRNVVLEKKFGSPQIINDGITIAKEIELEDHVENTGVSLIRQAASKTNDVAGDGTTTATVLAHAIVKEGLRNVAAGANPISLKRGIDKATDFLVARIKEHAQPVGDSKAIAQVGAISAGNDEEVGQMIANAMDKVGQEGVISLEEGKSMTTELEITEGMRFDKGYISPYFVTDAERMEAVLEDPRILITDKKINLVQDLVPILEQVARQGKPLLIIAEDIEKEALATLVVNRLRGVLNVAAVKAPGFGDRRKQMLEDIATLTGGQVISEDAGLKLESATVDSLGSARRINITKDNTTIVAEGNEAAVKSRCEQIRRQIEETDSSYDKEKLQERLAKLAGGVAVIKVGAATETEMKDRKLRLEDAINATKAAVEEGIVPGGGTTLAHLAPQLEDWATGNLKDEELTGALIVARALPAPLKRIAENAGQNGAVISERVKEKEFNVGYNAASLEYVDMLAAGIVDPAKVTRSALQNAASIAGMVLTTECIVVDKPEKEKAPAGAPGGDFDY
B3: Thioredoxin (Synechocystis sp. (strain PCC 6803 / Kazusa)), P52231 (parent)
chain: B1 chain
partner: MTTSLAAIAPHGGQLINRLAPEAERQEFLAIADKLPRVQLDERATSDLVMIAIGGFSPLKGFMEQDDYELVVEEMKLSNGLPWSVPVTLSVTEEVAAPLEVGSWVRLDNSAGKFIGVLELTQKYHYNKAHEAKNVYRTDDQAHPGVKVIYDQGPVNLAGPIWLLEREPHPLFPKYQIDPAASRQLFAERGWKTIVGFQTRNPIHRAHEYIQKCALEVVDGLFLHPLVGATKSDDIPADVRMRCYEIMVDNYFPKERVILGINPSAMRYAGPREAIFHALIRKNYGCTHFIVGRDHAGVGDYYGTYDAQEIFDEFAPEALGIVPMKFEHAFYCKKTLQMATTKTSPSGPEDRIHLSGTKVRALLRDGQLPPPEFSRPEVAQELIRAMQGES
B4: Thioredoxin (Synechocystis sp. (strain PCC 6803 / Kazusa)), P52231 (parent)
chain: B1 chain
partner: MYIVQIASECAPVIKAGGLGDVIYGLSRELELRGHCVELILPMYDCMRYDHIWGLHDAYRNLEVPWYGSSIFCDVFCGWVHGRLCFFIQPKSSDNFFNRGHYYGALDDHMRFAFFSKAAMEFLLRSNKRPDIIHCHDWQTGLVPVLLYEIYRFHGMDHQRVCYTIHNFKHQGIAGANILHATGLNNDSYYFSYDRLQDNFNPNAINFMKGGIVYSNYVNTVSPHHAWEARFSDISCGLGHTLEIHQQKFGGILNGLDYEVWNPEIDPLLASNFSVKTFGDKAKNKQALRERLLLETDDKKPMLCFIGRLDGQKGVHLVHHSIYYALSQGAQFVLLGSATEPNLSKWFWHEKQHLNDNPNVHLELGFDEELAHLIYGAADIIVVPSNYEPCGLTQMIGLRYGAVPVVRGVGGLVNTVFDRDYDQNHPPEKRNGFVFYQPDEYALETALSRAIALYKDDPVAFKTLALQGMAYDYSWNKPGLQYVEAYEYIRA
B5: Thioredoxin (Synechocystis sp. (strain PCC 6803 / Kazusa)), P52231 (parent)
chain: B1 chain
partner: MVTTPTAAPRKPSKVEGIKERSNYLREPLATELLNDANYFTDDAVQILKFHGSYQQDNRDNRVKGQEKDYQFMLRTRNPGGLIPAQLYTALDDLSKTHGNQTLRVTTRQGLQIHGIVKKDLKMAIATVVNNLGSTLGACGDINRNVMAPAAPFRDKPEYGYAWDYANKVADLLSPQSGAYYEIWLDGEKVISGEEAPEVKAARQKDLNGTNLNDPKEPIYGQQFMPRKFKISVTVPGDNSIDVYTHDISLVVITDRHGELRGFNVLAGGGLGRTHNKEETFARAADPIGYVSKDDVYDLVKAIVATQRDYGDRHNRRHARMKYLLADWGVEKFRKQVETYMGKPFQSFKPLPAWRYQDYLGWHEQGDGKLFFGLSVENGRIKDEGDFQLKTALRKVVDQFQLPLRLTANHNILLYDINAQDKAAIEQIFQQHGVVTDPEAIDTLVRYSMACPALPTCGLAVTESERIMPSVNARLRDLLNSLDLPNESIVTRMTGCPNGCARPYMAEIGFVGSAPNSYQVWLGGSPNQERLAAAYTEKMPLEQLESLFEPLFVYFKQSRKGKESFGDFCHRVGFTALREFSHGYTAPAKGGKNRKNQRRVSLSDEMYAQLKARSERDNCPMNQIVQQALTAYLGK
B6: Thioredoxin (Synechocystis sp. (strain PCC 6803 / Kazusa)), P52231 (parent)
chain: B1 chain
partner: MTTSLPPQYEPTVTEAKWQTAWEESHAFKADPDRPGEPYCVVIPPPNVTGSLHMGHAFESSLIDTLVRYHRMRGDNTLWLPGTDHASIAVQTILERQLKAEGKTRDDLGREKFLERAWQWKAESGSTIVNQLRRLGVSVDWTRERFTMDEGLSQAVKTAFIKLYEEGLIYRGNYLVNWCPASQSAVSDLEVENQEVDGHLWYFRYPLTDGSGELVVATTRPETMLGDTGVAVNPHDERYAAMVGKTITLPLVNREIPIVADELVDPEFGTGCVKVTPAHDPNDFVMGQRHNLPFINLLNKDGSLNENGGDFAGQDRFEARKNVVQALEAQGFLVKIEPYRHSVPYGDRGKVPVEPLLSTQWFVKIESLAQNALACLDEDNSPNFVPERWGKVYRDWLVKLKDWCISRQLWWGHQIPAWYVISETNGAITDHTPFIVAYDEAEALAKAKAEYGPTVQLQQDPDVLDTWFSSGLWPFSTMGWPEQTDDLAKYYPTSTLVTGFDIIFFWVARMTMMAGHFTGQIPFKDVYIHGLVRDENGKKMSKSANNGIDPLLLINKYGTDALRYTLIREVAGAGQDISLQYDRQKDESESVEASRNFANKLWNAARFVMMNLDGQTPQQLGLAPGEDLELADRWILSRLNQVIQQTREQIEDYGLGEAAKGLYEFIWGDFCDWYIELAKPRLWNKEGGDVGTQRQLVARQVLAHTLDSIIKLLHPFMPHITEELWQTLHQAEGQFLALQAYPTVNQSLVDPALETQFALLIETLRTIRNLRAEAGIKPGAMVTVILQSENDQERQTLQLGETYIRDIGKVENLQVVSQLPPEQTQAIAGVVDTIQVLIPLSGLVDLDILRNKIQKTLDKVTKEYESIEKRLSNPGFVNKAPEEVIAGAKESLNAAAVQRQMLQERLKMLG
B7: Thioredoxin (Synechocystis sp. (strain PCC 6803 / Kazusa)), P52231 (parent)
chain: B1 chain
partner: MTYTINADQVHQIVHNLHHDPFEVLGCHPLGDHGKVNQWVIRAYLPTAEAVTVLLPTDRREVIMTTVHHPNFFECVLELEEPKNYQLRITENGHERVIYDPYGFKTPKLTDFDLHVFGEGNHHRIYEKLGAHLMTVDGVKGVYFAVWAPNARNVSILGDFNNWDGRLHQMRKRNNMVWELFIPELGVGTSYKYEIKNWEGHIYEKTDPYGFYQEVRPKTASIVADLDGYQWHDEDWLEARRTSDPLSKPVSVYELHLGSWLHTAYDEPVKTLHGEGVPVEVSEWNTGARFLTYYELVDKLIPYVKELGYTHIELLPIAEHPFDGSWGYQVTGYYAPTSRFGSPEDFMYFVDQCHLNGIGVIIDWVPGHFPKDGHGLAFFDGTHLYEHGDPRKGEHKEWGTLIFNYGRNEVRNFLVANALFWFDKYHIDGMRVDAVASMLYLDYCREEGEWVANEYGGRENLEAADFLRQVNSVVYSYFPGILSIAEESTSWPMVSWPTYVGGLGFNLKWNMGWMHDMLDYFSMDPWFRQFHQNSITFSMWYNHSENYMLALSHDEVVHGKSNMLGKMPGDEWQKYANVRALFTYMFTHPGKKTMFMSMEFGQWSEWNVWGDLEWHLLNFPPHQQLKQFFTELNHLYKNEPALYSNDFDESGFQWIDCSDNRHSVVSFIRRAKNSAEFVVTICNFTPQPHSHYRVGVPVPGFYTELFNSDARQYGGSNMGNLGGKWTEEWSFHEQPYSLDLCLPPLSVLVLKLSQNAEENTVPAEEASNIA
B8: Thioredoxin (Synechocystis sp. (strain PCC 6803 / Kazusa)), P52231 (parent)
chain: B1 chain

The variants in one experiment derive from B1. Particulars: with ccmm_syny3 ccmM.
Take MSATPQVSDASFKEDVLDSELPVLVDFWAPWCGPSRMVAPVVDEISQQYEGKVKVVKLNTDENPNTASQYGIRSIPTLMIFKGGQRVDMVVGAVPKTTLASTLEKYL: the “effect of a mutation on the interaction” value is given as “increasing interaction”.

The variants in another experiment derive from B2. As to conditions: with ch601_syny3 groEL1, Q05972.
For the variant MSATPQVSDASFKEDVLDSELPVLVDFWAPWCGPSRMVAPVVDEISQQYEGKVKVVKLNTDENPNTASQYGIRSIPTLMIFKGGQRVDMVVGAVPKTTLASTLEKYL, the “effect of a mutation on the interaction” value was “increasing interaction”.

In a further experiment the parent is B3. As to conditions: with sat_syny3 sat.
For MSATPQVSDASFKEDVLDSELPVLVDFWAPWCGPSRMVAPVVDEISQQYEGKVKVVKLNTDENPNTASQYGIRSIPTLMIFKGGQRVDMVVGAVPKTTLASTLEKYL, the “effect of a mutation on the interaction” value is given as “increasing interaction”.

Another experiment covers variants of B4. Particulars: with glga2_syny3 glgA2, P72623.
Take MSATPQVSDASFKEDVLDSELPVLVDFWAPWCGPSRMVAPVVDEISQQYEGKVKVVKLNTDENPNTASQYGIRSIPTLMIFKGGQRVDMVVGAVPKTTLASTLEKYL: the “effect of a mutation on the interaction” value is “increasing interaction”.

Variants of B5 are the subject of a further experiment. Particulars: with sir_syny3 sir.
As for MSATPQVSDASFKEDVLDSELPVLVDFWAPWCGPSRMVAPVVDEISQQYEGKVKVVKLNTDENPNTASQYGIRSIPTLMIFKGGQRVDMVVGAVPKTTLASTLEKYL, the “effect of a mutation on the interaction” value was “increasing interaction”.

In a further experiment the parent is B6. Particulars: with syv_syny3 valS.
Take MSATPQVSDASFKEDVLDSELPVLVDFWAPWCGPSRMVAPVVDEISQQYEGKVKVVKLNTDENPNTASQYGIRSIPTLMIFKGGQRVDMVVGAVPKTTLASTLEKYL: the “effect of a mutation on the interaction” value is “increasing interaction”.

A further experiment covers variants of B7. Particulars: with glgb_syny3 glgB.
For the variant MSATPQVSDASFKEDVLDSELPVLVDFWAPWCGPSRMVAPVVDEISQQYEGKVKVVKLNTDENPNTASQYGIRSIPTLMIFKGGQRVDMVVGAVPKTTLASTLEKYL, the “effect of a mutation on the interaction” value is recorded as “increasing interaction”.

The variants in another experiment derive from B8. As to conditions: with glts_syny3 gltS.
On to MSATPQVSDASFKEDVLDSELPVLVDFWAPWCGPSRMVAPVVDEISQQYEGKVKVVKLNTDENPNTASQYGIRSIPTLMIFKGGQRVDMVVGAVPKTTLASTLEKYL, for which the “effect of a mutation on the interaction” value is given as “increasing interaction”.

The variants in the next experiment derive from B8. Particulars: with rbl_syny3 cbbL.
As for MSATPQVSDASFKEDVLDSELPVLVDFWAPWCGPSRMVAPVVDEISQQYEGKVKVVKLNTDENPNTASQYGIRSIPTLMIFKGGQRVDMVVGAVPKTTLASTLEKYL, the “effect of a mutation on the interaction” value was “increasing interaction”.

A further experiment covers variants of B8. Particulars: with eftu_syny3 tuf.
On to MSATPQVSDASFKEDVLDSELPVLVDFWAPWCGPSRMVAPVVDEISQQYEGKVKVVKLNTDENPNTASQYGIRSIPTLMIFKGGQRVDMVVGAVPKTTLASTLEKYL, for which the “effect of a mutation on the interaction” value is on record as “increasing interaction”.

In another experiment the parent is B8. As to conditions: with gltb_syny3 gltB.
With MSATPQVSDASFKEDVLDSELPVLVDFWAPWCGPSRMVAPVVDEISQQYEGKVKVVKLNTDENPNTASQYGIRSIPTLMIFKGGQRVDMVVGAVPKTTLASTLEKYL, the “effect of a mutation on the interaction” value is listed as “increasing interaction”.

Variants of B8 are the subject of the next experiment. As to conditions: with apce_syny3 apcE.
Regarding MSATPQVSDASFKEDVLDSELPVLVDFWAPWCGPSRMVAPVVDEISQQYEGKVKVVKLNTDENPNTASQYGIRSIPTLMIFKGGQRVDMVVGAVPKTTLASTLEKYL, the “effect of a mutation on the interaction” value is “increasing interaction”.
